T1: Human CD81-LEL (residues 112-202), protein-A tag cleaved by PreScission Protease (human, UniProt P60033 112-202)
T1 construct: range 112-202
T1 sequence: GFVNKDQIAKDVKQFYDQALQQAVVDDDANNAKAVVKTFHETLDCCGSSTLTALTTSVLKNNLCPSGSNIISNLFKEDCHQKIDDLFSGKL


Columns and labels:
[1] = biological target: human CD81, cellular receptor on the cells infected with HCVcc (human) (UniProt P60033); experiment: cell-based or functional assay
[2] = biological target: T1, Human CD81-LEL (residues 112-202), …; experiment: SAXS envelope of the complex
[3] = biological target: T1, Human CD81-LEL (residues 112-202), …; experiment: ELISA, CD81-LEL coated, detection with 2A12 and anti-mouse-HRP

Sequence of human CD81, cellular receptor on the cells infected with HCVcc (human) (P60033 whole entry, the tested form may be a part): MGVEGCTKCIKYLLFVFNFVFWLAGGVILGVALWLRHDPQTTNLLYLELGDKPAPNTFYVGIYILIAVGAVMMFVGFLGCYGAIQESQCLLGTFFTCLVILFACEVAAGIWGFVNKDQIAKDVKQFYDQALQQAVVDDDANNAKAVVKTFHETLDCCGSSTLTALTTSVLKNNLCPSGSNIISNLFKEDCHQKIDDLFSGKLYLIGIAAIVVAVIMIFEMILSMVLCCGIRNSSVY

Molecule	50% blocking efficiency, HCVcc focus forming units [1] [µg/mL]	further results
purified eE2 (J6 genotype 2a E2 ectodomain aa 384-664, released from the Fc tag by thrombin) (from UniProt P26660 385-664)	25 to 150	
purified eE2-C656S (J6 E2 ectodomain aa 384-664 with C656S, released from the Fc tag by thrombin) (from UniProt P26660 385-664)	25 to 150	
eE2(ΔHVR1) (residues 413-656, genotype J6) (other, glycosylated (SAXS sample), also called eE2(DHVR1); eE2 (DHVR1)) LVNTNGSWHINRTALNCNDSLHTGFIASLFYTHSFNSSGCPERMSACRSIEAFRVGWGALQYEDNVTNPEDMRPYCWHYPPRQCGVVSAKTVCGPVYCFTPSPVVVGTTDRLGAPTYTWGENETDVFLLNSTRPPLGSWFGCTWMNSSGYTKTCGAPPCRTRADFNASTDLLCPTDCFRKHPDTTYLKCGSGPWLTPRCLIDYPYRLWHYPCTVNYTIFKIRMYVGGVEHRLTAACNFTRGDRC		binding result [2]: binds
full-length E2 ectodomain eE2 (residues 384-656, genotype J6), produced with a C-terminal protein-A tag and released by PreScission Protease (other, N-linked glycans from GnTI- HEK293T cells; whether deglycosylated in the ELISAs is not stated, Monomeric; also called eE2 (384-656)) RTHTVGGSAAQTTGRLTSLFDMGPRQKIQLVNTNGSWHINRTALNCNDSLHTGFIASLFYTHSFNSSGCPERMSACRSIEAFRVGWGALQYEDNVTNPEDMRPYCWHYPPRQCGVVSAKTVCGPVYCFTPSPVVVGTTDRLGAPTYTWGENETDVFLLNSTRPPLGSWFGCTWMNSSGYTKTCGAPPCRTRADFNASTDLLCPTDCFRKHPDTTYLKCGSGPWLTPRCLIDYPYRLWHYPCTVNYTIFKIRMYVGGVEHRLTAACNFTRGDRC		binding result [3]: binds
